Molecular target: Insulin
Experiment: low stringency direct binding ELISA on coated insulin, antibody dilutions from 10 µg/mL

Sequence of Insulin (P01308 25-54, chain 1 of 2): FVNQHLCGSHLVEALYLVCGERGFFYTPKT
Sequence of Insulin (P01308 90-110, chain 2 of 2): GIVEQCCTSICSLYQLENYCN

Polyreactivity Score | Substance
12.2 | Positive Control (polyreactivity assay) (antibody)
5.03 | Negative Control (polyreactivity assay) (antibody)

Reference: patent US20240261423A1
